Assay results: the supplement of paper PMC10126150
± gives the standard deviation of the averaged measurements.

System: ATP
Test: switch fluorescence ratio, 500 uM ATP over buffer (Cy3 cluster intensity, sum of 5 cycles each) (fold (ratio)); higher = stronger signal-on switching upon ATP binding; sequences stand for … in TCGTCGGCAGCGTCAGATGTGTATAAGAGACAGTTTTTTTTTTTTTTTTTTTTTTTTT…TC
Conditions: aptamer strand: ATP DNA aptamer (quencher-CACCTGGGGGAGTATTGCGGAGGAAGG + anchor), 100 nM annealed; ATP concentration: 500 uM
In short: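 After annealing to 100 nM quencher-labelled ATP aptamer, Cy3-labelled switching-strand clusters on a modified Illumina MiSeq flow-cell were imaged in selection buffer. A second image followed after 15 min with 500 uM ATP at 22 °C, and five such buffer/ATP cycles were done, each separated by NaOH stripping and re-annealing. The fluorescence ratio, averaged per switch-domain sequence, is summed target-cycle over summed buffer-cycle Cy3 intensity per cluster, with clusters outside 100-1000 RFU excluded.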
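Further: ATP exposure 15 min at 22 °C before imaging.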

Sequence	switch fluorescence ratio
TTTGGTTTCC	1.01 ± 0.053
TTTGGTTTGC	0.992 ± 0.0039
TTTGTAAATT	1 ± 0.018
TTTGTAACAC	1.25 ± 0.36
TTTGTAATGG	1.08 ± 0.14
TTTGTAGAGC	1.05 ± 0.063
TTTGTAGCAC	1.31 ± 0.072
TTTGTAGGCA	0.989 ± 0.011
TTTGTAGTTT	1.03 ± 0.055
TTTGTATGAG	1.03 ± 0.025
TTTGTATGGT	0.976 ± 0.011
TTTGTATTAG	1 ± 0.028
TTTGTATTCG	1.004 ± 0.0064
TTTGTCAAGG	1.02 ± 0.015
TTTGTCAGAT	0.98 ± 0.013
TTTGTCAGGT	0.9692 ± 0.0021
TTTGTCCCGT	0.98 ± 0.026
TTTGTCGCTG	1.01 ± 0.038
TTTGTCTGAC	0.9946 ± 0.0028
TTTGTCTTGG	0.972 ± 0.031
TTTGTGAAAG	1.008 ± 0.006
TTTGTGAGGT	1.01 ± 0.034

Sequence	switch fluorescence ratio
TTTGTGATG	0.959 ± 0.027
TTTGTGATGG	0.954 ± 0.026
TTTGTGCCTT	1.1 ± 0.12
TTTGTGGGGC	1.01 ± 0.042
TTTGTGGTAG	0.984 ± 0.011
TTTGTGGTCC	0.98 ± 0.039
TTTGTGTAGC	1 ± 0.038
TTTGTGTATA	0.976 ± 0.057
TTTGTGTGTT	1.02 ± 0.024
TTTGTGTTAG	0.9983 ± 0.0082
TTTGTGTTTG	0.999 ± 0.016
TTTGTTAATA	1.02 ± 0.014
TTTGTTACAG	1 ± 0.031
TTTGTTACTT	1.01 ± 0.021
TTTGTTATTT	1.01 ± 0.023
TTTGTTCACG	0.991 ± 0.01
TTTGTTCCTC	1.103 ± 0.005
TTTGTTCGGC	1 ± 0.033
TTTGTTGTAC	1.06 ± 0.058
TTTGTTGTTT	0.986 ± 0.013
TTTGTTTCT	0.968 ± 0.01
TTTGTTTGCT	0.989 ± 0.025

Sequence	switch fluorescence ratio
TTTGTTTTC	1.02 ± 0.018
TTTGTTTTCT	1.01 ± 0.032
TTTTAAAAAA	1 ± 0.026
TTTTAAACGT	1.04 ± 0.039
TTTTAAAGAT	0.977 ± 0.021
TTTTAAAGGG	0.993 ± 0.045
TTTTAAAGTC	1.02 ± 0.03
TTTTAACAGG	1.02 ± 0.08
TTTTAACTCT	1.05 ± 0.015
TTTTAACTGT	1.01 ± 0.038
TTTTAAGGAA	1.04 ± 0.071
TTTTAAGGGA	0.998 ± 0.014
TTTTAAGGGT	0.999 ± 0.036
TTTTAATTCA	1 ± 0.015
TTTTACCACT	1.0422 ± 0.00058
TTTTACCCTT	1.04 ± 0.04
TTTTACGCAG	1.03 ± 0.044
TTTTACGGGG	1.02 ± 0.03
TTTTACTGAG	1.04 ± 0.025
TTTTACTTAC	1.25 ± 0.059
TTTTAGAATT	0.996 ± 0.013
TTTTAGACTG	1.05 ± 0.039

Sequence	switch fluorescence ratio
TTTTAGAGTT	0.982 ± 0.013
TTTTAGCAGA	1.06 ± 0.016
TTTTAGCTTC	1.03 ± 0.017
TTTTAGGAAT	0.997 ± 0.027
TTTTAGGAGT	0.989 ± 0.037
TTTTAGGCCG	1.03 ± 0.042
TTTTAGGGGC	1.13 ± 0.23
TTTTAGGGTG	1.07 ± 0.072
TTTTAGGTGC	1.09 ± 0.099
TTTTAGTCAT	1.01 ± 0.014
TTTTAGTGAC	1.022 ± 0.0053
TTTTAGTT	0.993 ± 0.039
TTTTATAAGG	1.01 ± 0.023
TTTTATAATT	1.04 ± 0.089
TTTTATATTT	1 ± 0.034
TTTTATCCTT	1 ± 0.028
TTTTATCTAA	0.988 ± 0.048
TTTTATCTGA	1.02 ± 0.028
TTTTATGAGG	0.973 ± 0.03
